Laboratory results reported in IntAct's records for PubMed 19375531.

B1: AH receptor-interacting protein (Homo sapiens), O00170 (parent)
chain: MADIIARLREDGIQKRVIQEGRGELPDFQDGTKATFHYRTLHSDDEGTVLDDSRARGKPMELIIGKKFKLPVWETIVCTMREGEIAQFLCDIKHVVLYPLVAKSLRNIAVGKDPLEGQRHCCGVAQMREHSSLGHADLDALQQNPQPLIFHMEMLKVESPGTYQQDPWAMTDEEKAKAVPLIHQEGNRLYREGHVKEAAAKYYDAIACLKNLQMKEQPGSPEWIQLDQQITPLLLNYCQCKLVVEEYYEVLDHCSSILNKYDDNVKAYFKRGKAHAAVWNAQEAQADFAKVLELDPALAPVVSRELRALEARIRQKDEEDKARFRGIFSH

Variants of: B1
Conditions: with hs90b_human HSP90AB1, P08238
Sequence of hs90b_human HSP90AB1, P08238 (P08238 whole entry): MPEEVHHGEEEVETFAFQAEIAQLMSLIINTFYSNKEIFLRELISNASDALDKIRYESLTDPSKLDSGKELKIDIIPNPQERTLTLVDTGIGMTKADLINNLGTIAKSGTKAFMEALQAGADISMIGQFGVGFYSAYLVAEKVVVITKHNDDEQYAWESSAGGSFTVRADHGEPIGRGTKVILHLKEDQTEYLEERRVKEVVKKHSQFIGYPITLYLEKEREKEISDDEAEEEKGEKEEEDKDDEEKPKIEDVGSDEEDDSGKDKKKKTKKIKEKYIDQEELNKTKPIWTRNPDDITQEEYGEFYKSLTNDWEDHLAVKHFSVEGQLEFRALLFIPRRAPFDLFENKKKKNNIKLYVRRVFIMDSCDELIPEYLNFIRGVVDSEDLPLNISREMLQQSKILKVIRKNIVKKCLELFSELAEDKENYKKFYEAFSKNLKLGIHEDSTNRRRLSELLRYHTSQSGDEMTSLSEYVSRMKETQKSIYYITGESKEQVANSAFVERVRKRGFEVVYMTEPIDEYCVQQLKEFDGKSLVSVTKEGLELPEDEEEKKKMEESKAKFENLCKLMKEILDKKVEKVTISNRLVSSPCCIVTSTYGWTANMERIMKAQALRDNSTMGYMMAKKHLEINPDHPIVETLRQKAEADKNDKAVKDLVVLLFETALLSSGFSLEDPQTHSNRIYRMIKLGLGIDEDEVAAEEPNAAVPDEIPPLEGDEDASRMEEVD

Row | effect of a mutation on the interaction | Variant
1 | disrupting interaction | MADIIARLREDGIQKRVIQEGRGELPDFQDGTKATFHYRTLHSDDEGTVLDDSRARGKPMELIIGKKFKLPVWETIVCTMREGEIAQFLCDIKHVVLYPLVAKSLRNIAVGKDPLEGQRHCCGVAQMREHSSLGHADLDALQQNPQPLIFHMEMLKVESPGTYQQDPWAMTDEEKAKAVPLIHQEGNRLYREGHVKEAAAKYYDAIACLKNLQMKEQPGSPEWIQLDQQITPLLLNYCQCKLVVEEYYEVLDHCSSILNKYDDNVKAYFKAGKAHAAVWNAQEAQADFAKVLELDPALAPVVSRELRALEARIRQKDEEDKARFRGIFSH [R271A]
2 | disrupting interaction | MADIIARLREDGIQKRVIQEGRGELPDFQDGTKATFHYRTLHSDDEGTVLDDSRARGKPMELIIGKKFKLPVWETIVCTMREGEIAQFLCDIKHVVLYPLVAKSLRNIAVGKDPLEGQRHCCGVAQMREHSSLGHADLDALQQNPQPLIFHMEMLKVESPGTYQQDPWAMTDEEKAKAVPLIHQEGNRLYREGHVKEAAAKYYDAIACLKNLQMKEQPGSPEWIQLDQQITPLLLNYCQCKLVVEEYYEVLDHCSSILNKYDDNVAAYFKRGKAHAAVWNAQEAQADFAKVLELDPALAPVVSRELRALEARIRQKDEEDKARFRGIFSH [K266A]
